Measured values as given in FireProtDB (doi:10.1038/75151).

B1: Cold shock protein CspB, P41016 (parent)
chain: MQRGKVKWFNNEKGYGFIEVEGGSDVFVHFTAIQGEGFKTLEEGQEVSFEIVQGNRGPQAANVVKL

Variants of: B1
Conditions: Bacillus caldolyticus, pH 7, Thermal, CD, Sodium cacodylate-HCl 0.1 M, reversible: yes, structure 1C9O, whole UniProt chain shown; for ddG of mutation (higher = less stable) / unfolding free energy: 70 °C

Variant	Tm [°C]	change of melting temperature, mutant - wild type (higher = more stable) [°C]	unfolding enthalpy (van 't Hoff) [kcal/mol]	ddG of mutation (higher = less stable) (NaCl 2 M) [kcal/mol]	unfolding free energy (NaCl 2 M) [kcal/mol]	ddG of mutation (higher = less stable) [kcal/mol]	unfolding free energy [kcal/mol]
R3E L66E	44.6	-32.3	36.8	–	–	–	–
V64T	75.1	-1.8	58.3	0.19	2.01	–	–
S24D	77.8	0.9	61.7	-0.19	2.39	-0.22	1.29
R3E	59.1	-17.8	45.6	1	1.2	–	–
E46A	75.4	-1.5	57.6	0.12	2.08	0.22	0.86
Q53E	76.1	-0.8	58.8	0	2.2	0.1	0.98
L66E	–	–	–	1.27	0.93	–	–
L66A	–	–	–	0.07	2.13	–	–
Q2L	80.9	4	57.8	-0.29	2.49	-0.55	1.63
T31S	77.8	0.9	59.8	-0.19	2.39	-0.17	1.24
N11S	79.2	2.3	58.8	-0.22	2.41	-0.33	1.41
G23Q	74.7	-2.2	59.5	0.31	1.89	0.29	0.79
Y15F	76.7	-0.2	56.6	-0.07	2.27	0.05	1.03
